# Assay results: paper PMC3172333
# Read-outs that look alike come from different tables or passages of the source.
# Experiments:
# [1] = target: cross-linked Aα221-610 oligomers (factor XIIIa cross-linked) (human); assay: SPR
# [2] = target: recombinant Aα221-610 fragment corresponding to the human fibrinogen αC region (non-cross-linked) (human); assay: SEC
# [3] = target: recombinant Aα221-610 fragment corresponding to the human fibrinogen αC region (non-cross-linked) (human); assay: SEC; remark: listed apart in the source
# [4] = target: recombinant Aα221-610 fragment corresponding to the human fibrinogen αC region (non-cross-linked) (human); assay: SEC; remark: listed apart in the source
# [5] = target: recombinant Aα221-610 fragment corresponding to the human fibrinogen αC region (non-cross-linked) (human); assay: SEC; remark: listed apart in the source
# [6] = target: recombinant Aα221-610 fragment corresponding to the human fibrinogen αC region (non-cross-linked) (human); assay: SEC; remark: listed apart in the source
Kd [1] [nM],percent oligomers [2] [%],percent oligomers [3] [%],percent monomer [4] [%],percent oligomers [4] [%],percent oligomers (after overnight incubation) [4] [%],percent oligomers (immediately after dilution) [4] [%],percent oligomers [5] [%],percent monomer [6] [%],Substance
458,,,,,,,,,human Glu-plasminogen (natural protein)
,60,22,60,5,11,18,15,10,recombinant Aα221-610 fragment corresponding to the human fibrinogen αC region (non-cross-linked) (domain or fragment)
440,,,,,,,,,recombinant single-chain tissue type plasminogen activator (enzyme)
